Experimental findings from the DeepSol protein solubility set are described below.

The data set is described as follows: soluble on expression in E. coli; label from the status in PepcDB or PDB records.
Regarding “SVGTAGISLLLLWYHKVRKPGIAMKLPEFLSLGNTFNSITLQDEIHDDQGTTVIFQERQLQILEKLNELLTNMEELKEEIRFLKEAIPKLEEYIQDELGGKITVHKISPQHRARKRRLPTIQSSATSNSSEEAESEGGYITANTDTEEQSFPVPKAFNTRVEELNLDVLLQKVDHLRMSESGKSESFELLRDHKEKFRDEIEFMWRFARAYGDMYELSTNTQEKKHYANIGKTLSERAINRAPMNGHCHLWYAVLCGYVSEFEGLQNKINYGHLFKEHLDIAIKLLPEEPFLYYLKGRYCYTVSKLSWIEKKMAATLFGKIPSSTVQEALHNFLKAEELCPGYSNPNYMYLAKCYTDLEENQNALKFCNLALLLPTVTKEDKEAQKEMQKIMTSLKR”, the “soluble on expression in E. coli” value is given as “soluble”.

“MGSDKIHHHHHHMKDNKINILFLSWRDIKCPKSGGAEVFTHEMLKRLDFNKYDITHFSPTFEGAKEKEIIDNVTYIRRGNILSVISEAKKYYKTNKDEIDFVVDQCNTHKFFTPLWVPKKKRIFFIHQLTREIWHINARFPISTLGYLFETPTLRLYKNDYTITVSDSTKKDLIDIGFDRDKVTIFPEGINFKPWDKDSLLKEKDNIFGYIGRFVNYKGIDAAVKAYCILKKDYPNSKLWIIGKKKDDYIEKVLLPILKENNITYGNRGQNRDITFWGFVSEKEKLSLMSKMKALLFPSIREGFGLTVIEAGAVGTPTVVYNSKGLVDAVDKGKAGYLCEENTPENLYYFMKNILENENEYGLKRKNAHDFSLKFNWDSTSKYFDDFINKLNEKSLKK”: the “soluble on expression in E. coli” value was “not soluble”.

Take “GPLGSPEFPGEFYIPPEPSNDAIEIFSSGIASGIHFSKYNNIPVKVTGSDVPQPIQHFTSADLRDIIIDNVNKSGYKIPTPIQKCSIPVISSGRDLMACAQTGSGKTAAFLLPILSKLLEDPHELELGRPQVVIVSPTRELAIQIFNEARKFAFESYLKIGIVYGGTSFRHQNECITRGCHVVIATPGRLLDFVDRTFITFEDTRFVVLDEADRMLDMGFSEDMRRIMTHVTMRPEHQTLMFSATFPEEIQRMAGEFLKNYVFVAIGIVGGACSDVKQTIYEVNKYAKRSKLIEILSEQADGTIVFVETKRGADFLASFLSEKEFPTTSIHGDRLQSQREQALRDFKNGSMKVLIATSVASRGLDIKNIKHVINYDMPSKIDDYVHRIGRTGRVGNNGRATSFFDPEKDRAIAADLVKILEGSGQTVPDFLRTC”: the “soluble on expression in E. coli” value was “soluble”. With “MRCVYCHNAQLQEFAPGAVGVDDLVGLARRRIGLIDAVVISGGEPTAVPGLAEAICRIHDLGLPVGLHTCGYAPKRLATLVSQPESRPDWIGLDIKALPRHMHEITGCSPRVAQSCWESLAIIDAVGIEVQTRTTLWPGSVIEQNLRELEVMVAAQGHELVVQQARF” the entry was “not soluble”; with “MKKLLLSILFVGGGLISLSNNFTGPRYRVDISTGFIDDRRFALTSGYKFFSGSVSVLPEWELKFNKKFDISFGPKVSLNFENFIGSMDATTINPSIILGGEIDFNYKVIEDVKIYAGMEVGTGIGFQAFVSSSHNHFQGPELKTESKISLGVKVKDKFNLAFYTGDIKGVIGVEAGYTF”, “not soluble”; with “MGSDKIHHHHHHMIDKLEFFIALARAQHFGRAAEECGISQPTLSAAIRQLEDQLGVILVQRGSRFQGLTPEGQRVLEWARRIVGDARTMREEMRAARNGLAGHIRLAVIPTALAMVQRLTEPFQAHHPAVTFQVVSRNSLQVLSLLENLEIDAGITYLDNEPLGRVTSVPLYAERYHLIAATGTPLADRESVTWREVSDLRLCLLTADMQNRRIINQHFTEAGVVPRPTLESNSMIVLFSHIRTGQWSSIMPRNVAESFGFPEEIRMVPIVEPQAQHLVGLVATHREPYTPLVSALLHEARRLAAAQVFDRFFLSRNNTAVLT”, “not soluble”.

Turning to “MNVLIVGSGGREHALAWKMKQSPKVKNVIVAPGNGGHSERIDINSNDLDAVADFCEKHNIHCVLIGPEEPLSNGLADHLIRIHPNLMVFGPLKDGAQLETSKSFSKHFMKEYGLPTADFVTVSIENVKSLDCVFERLPWKNSVVKADGLAAGKGVIIPRNNAEAVEAARSILHGQFGNAGRTVIIEERLEGYEVSALAFTDGISFKRMPLGKDHKRLLESDLGPNTGMGVVAPVSVPKEVDRQIDEIFEKTLKGLADRKIKYCGVLYAGFMIVDQKPLLLEFNCRFGDPETQVLMRLLESDLFEIISSCVNQTLNTCDINWSTKSVCGVVLASGNYPKSGDKGSPITEIPSPDSTNVVFHAGTSVINSQIVTNGGRILCVTSLADTLHDAREHANKIAQNIQFTGKQFRKDIGKTIDIGTPSLSYGSSGVNIDEGNQFVEDIKLLVKKTLLPGAAQIGGFGAVLDLKKAGFSNDSQLVVGIDGVGTKIEVATHCNNFTGVGYDVVAMCVNDVICHCAKPIAFLDYFVCGKLERSMATQVLTSISEACVEAECSLIGGETAEMPGVYSTHQWDLAGCAIAARESTWPMLPLSSEIRDGDVILGLPSSGLHSNGFSLARKILTVNGVKYNDPLPWDSKSTFGTELLRGTKLYVKKVLPLLSTGLVKGCAHITGGGLTENAIRVLDKNSKDSLVIDCASWKFREIFNWMAAAGPVDTKEMIRTFNCGIGMVLIVSPDNVEKVKKQLRKHEEEFYEIGHVENSKNGEAIKFVNEEKMFQREKYTTQRKRVRVAILISGTGTNMQKLIERSKTPDSNCDVVLVVSNKEGAGGLTIAASYGIPTKVVPHTADRVTGDTELAQVLKDFGTELVCLGGYMRILSPCFISQFPSRIINIHPSLLPAFKGAHALQDALNFGVRIVGCTAHFVDELVDHGDIIAQRPVVVEDTDTIETVRQKIQLQEHEMFPNAMIAVAAKILEK”, the “soluble on expression in E. coli” value is “not soluble”. With “HMTDLKASSLRALKLMDLTTLNDDDTDEKVIALCHQAKTPVGNTAAICIYPRFIPIARKTLKEQGTPEIRIATVTNFPHGNDDIDIALAETRAAIAYGADEVDVVFPYRALMAGNEQVGFDLVKACKEACAAANVLLKVIIETGELKDEALIRKASEISIKAGADFIKTSTGKVAVNATPESARIMMEVIRDMGVEKTVGFKPAGGVRTAEDAQKYLAIADELFGADWADARHYRFGASSLLASLLKALGHGDGKSASSY” the entry was “soluble”; with “MAQKKPKRNLSALKRHRQSLKRRLRNKAKKSAIKTLSKKAIQLAQEGKAEEALKIMRKAESLIDKAAKGSTLHKNAAARRKSRLMRKVRQLLEAAGAPLIGGGLSA”, “soluble”; with “MKKSSEVMHQACDACRKKKWKCSKTVPTCTNCLKYNLDCVYSPQVVRTPLTRAHLTEMENR”, “soluble”. Regarding “MSLLWSRCTLFLFLCPIRVRGREHIPGKGPFVVMANHQGACDIFMMYGYLGIPFKWVLKEGIRKLPFVGYACRSAGFVFVDDTRPSSIAHTMDQAKRVLAEGTSIFIFPEGSRTRNGRLARFKKGGFLMADELGVPIIPVSLDGSYRVLPSGKLIPRPHRLTLTIHPPLSVADFGERPLCISEAVRETSRRIASVLPEEMAATQSKEGHHHHHH”, the “soluble on expression in E. coli” value was “not soluble”. In the case of “MVTETLSRKADYNANKLRKRLRRLVGTAIADFNMIEKGDRVMVCLSGGKDSYALLDILRNLQAHAPLDFELIAVNLDQKQPGFPEHVLPGYLSEINMPFRIVEQDTYSVVKRVIAEGKTTCSLCSRLRRGVLYRVATELGATKIALGHHRDDILETFFLNMFYGGKLKAMPPKLVSDDGCHVVIRPLAYCKEKDLAAYAWHAQFPIIPCNLCGSQPNLQRQVIKEMMQQWDKKYPGRLETMFTALQNIQLSHLADTSRYDFVGLKPHGIAIEEGDKAFDEEPLSVIPVDMDHDDDSTFEPENEHDGGAVQGGVI”, the “soluble on expression in E. coli” value is on record as “not soluble”. Take “MNNIAAPDQSFNPAHVLSFDLETTSANPFEARIVTSALVRIDSSGAHPVELLADPGVEIPEAASKVHGISTEYAREHGEPHEAVLKRTVDEIYAAWEEGFTLVVYNAPYDLTVLRQLTGDFVVKGPVYDPYLIDRIMDRFRKGKRTLTDLCSVYGVRMDNAHEATSDALAAARIAWMQAKKRFKDDLAAYSHDELMEYQAVQYYELQKDMKKYLDGLGRDTSTVNFGWPMQNSR”: the “soluble on expression in E. coli” value is on record as “not soluble”. With “GSETCIYSNWSPWSACSSSTCEKGKRMRQRMLKAQLDLSVPCPDTQDFQPCMGPGCSDEDG” the entry was “soluble”.
